Experimental data published in the supplement of paper PMC7877785.
± gives the uncertainty stated by the source.

Assay: self-splicing fitness, log relative to wild type (ln ratio); higher = more splicing; Tetrahymena group I intron in knt gene, E. coli kanamycin selection, DiMSum; sequences stand for … in CUCUCU…GGAGGGAAAAGUUAUCAGGCAUGCACCUGGUAGCUAGUCUUUAAACCAAUAGAUUGCAUCGGUUUAAAAGGCAAGACCGUCAAAUUGCGGGAAAGGGGUCAACAGCCGUUCAGUACCAAGUCUCAGGGGAAACUUUGAGAUGGCCUUGCAAAGGGUAUGGUAAUAAGCUGACGGACAUGGUCCUAACCACGCAGCCAAGUCCUAAGUCAACAGAUCUUCUGUUGAUAUGGAUGCAGUUCACAGACUAAAUGUCGGUCGGGGAAGAUGUAUUCUUCUCAUAAGAUAUAGUCGGACCUCUCCUUAAUGGGAGCUAGCGGAUGAAGUGAUGCAACACUGGAGCCGCUGGGAACUAAUUUGUAUGCGAAAGUAUAUUGAUUAGUUUUGGAGUACUCGUGGUCG
Procedure, shortened: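 Fitness was computed with DiMSum as the error-weighted combination of replicate fold changes, kanamycin versus none, each normalised to wild type. The library randomised all eight intron nucleotides of the P1ex region, with the intron placed in the knt kanamycin-resistance gene on pET-22b(+) in E. coli BL21(DE3). Six replicate transformations were grown overnight at 37°C or 30°C on LB agar with or without 25 μg/mL kanamycin, plus 100 μg/mL carbenicillin, 50 μM IPTG and 0.2% rhamnose. Pooled colonies were amplicon-sequenced on an Illumina HiSeq 2500.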

| Sequence | self-splicing fitness (ln) (30 °C) | self-splicing fitness (ln) (37 °C) |
| --- | --- | --- |
| CUGGAGCAAUAUUACGAUAG | -2.16 ± 0.25 | -1.38 ± 0.22 |
| UAUCAGCAAUAUUACGAGCC | -3.24 ± 0.34 | -2.33 ± 0.3 |
| ACGGAGCAAUAUUACGGGUG | -3.61 ± 0.18 | -3.18 ± 0.22 |
| AUGAAGCAAUAUUACGAGCC | -3.01 ± 0.38 | -3.27 ± 0.38 |
| UACUAGCAAUAUUACGGGGG | -2.19 ± 0.12 | -1.31 ± 0.14 |
| CGCUAGCAAUAUUACGUACG | -1.66 ± 0.13 | -1.07 ± 0.13 |
| UUAAAGCAAUAUUACGCCCA | 0.818 ± 0.11 | 0.402 ± 0.14 |
| UGGGAGCAAUAUUACGAACA | -1.33 ± 0.088 | -1.02 ± 0.091 |
| GUCCAGCAAUAUUACGUCAC | -2.41 ± 0.14 | -0.6 ± 0.13 |
| ACACAGCAAUAUUACGAGUC | -5.36 ± 0.27 | -3.05 ± 0.19 |
| CGUGAGCAAUAUUACGUGUU | -3.22 ± 0.3 | -2.86 ± 0.32 |
| GCGAAGCAAUAUUACGCAAU | -3.2 ± 0.2 | -2.07 ± 0.19 |
| ACCAAGCAAUAUUACGAUCG | -1.43 ± 0.067 | -0.395 ± 0.093 |
| GGCAAGCAAUAUUACGUACC | -1.35 ± 0.065 | -0.299 ± 0.083 |
| AGUGAGCAAUAUUACGUCGA | -3.92 ± 0.24 | -2 ± 0.16 |
| ACGAAGCAAUAUUACGAACC | -1.75 ± 0.14 | -0.895 ± 0.19 |
| AGACAGCAAUAUUACGGGAU | -1.22 ± 0.098 | -1.71 ± 0.14 |
| CGAGAGCAAUAUUACGCGGC |  | -1.9 ± 0.41 |
| GCGGAGCAAUAUUACGCUUA |  | 1.64 ± 0.37 |
| UUUAAGCAAUAUUACGGGAC | -1.77 ± 0.16 | -2 ± 0.42 |
| CUGAAGCAAUAUUACGUAUG | -0.151 ± 0.056 | -0.154 ± 0.068 |
| UUUCAGCAAUAUUACGUCAU | -3.32 ± 0.24 | -2.47 ± 0.35 |
| UCGGAGCAAUAUUACGGCUC | -1.81 ± 0.29 |  |
| UGCUAGCAAUAUUACGUUCC |  | -0.823 ± 0.42 |
| CCUCAGCAAUAUUACGGUGC | -2.28 ± 0.15 | -2.77 ± 0.48 |
| UUCGAGCAAUAUUACGCACA | -1.76 ± 0.25 | -1.45 ± 0.28 |

| Sequence | self-splicing fitness (ln) (30 °C) | self-splicing fitness (ln) (37 °C) |
| --- | --- | --- |
| UCCAAGCAAUAUUACGAUAA | -2.01 ± 0.11 | -0.704 ± 0.11 |
| UUAAAGCAAUAUUACGCUUA | -1.02 ± 0.083 | -0.561 ± 0.11 |
| UUGCAGCAAUAUUACGGUCU | -2.05 ± 0.092 | -1.26 ± 0.092 |
| AUCCAGCAAUAUUACGCUAC | -4.03 ± 0.3 | -1.95 ± 0.24 |
| AAGCAGCAAUAUUACGUGCC | -1.23 ± 0.11 | -1.47 ± 0.12 |
| CUAUAGCAAUAUUACGGGAC | -2.51 ± 0.3 |  |
| GUGCAGCAAUAUUACGAUAC | -1.58 ± 0.2 | -0.0479 ± 0.17 |
| AUUUAGCAAUAUUACGGAAC | -3.03 ± 0.3 | -2.02 ± 0.31 |
| UACGAGCAAUAUUACGACGA | -1.85 ± 0.18 | -0.325 ± 0.13 |
| UAAAAGCAAUAUUACGAGGC | -2.69 ± 0.34 | -2.67 ± 0.36 |
| UGCAAGCAAUAUUACGGGAC | -4 ± 0.37 |  |
| GUUGAGCAAUAUUACGGGGG | -3.87 ± 0.31 | -2.34 ± 0.25 |
| GAAUAGCAAUAUUACGAACG | -1.64 ± 0.1 | -0.336 ± 0.11 |
| UAGUAGCAAUAUUACGGUAG | -2.56 ± 0.18 | -1.73 ± 0.22 |
| AUUCAGCAAUAUUACGGCUG | -1.86 ± 0.2 | -2.59 ± 0.31 |
| CGCAAGCAAUAUUACGUAAA | -3.18 ± 0.14 | -2.12 ± 0.18 |
| AUUGAGCAAUAUUACGUAGU | -2.08 ± 0.17 | -0.638 ± 0.14 |
| GUUCAGCAAUAUUACGCAUU | -0.22 ± 0.06 | 0.414 ± 0.078 |
| CAGAAGCAAUAUUACGGGAG | -1.6 ± 0.12 | -0.856 ± 0.12 |
| UCCUAGCAAUAUUACGGUGC | -2.74 ± 0.17 | -2.36 ± 0.18 |
| AACUAGCAAUAUUACGGUGU | -1.77 ± 0.083 | -0.956 ± 0.099 |
| GUAAAGCAAUAUUACGGUCA | -0.163 ± 0.072 | 0.362 ± 0.097 |
| GCCUAGCAAUAUUACGCGAC | -1.92 ± 0.19 | -1.05 ± 0.27 |
| GUCGAGCAAUAUUACGUCUC | -1.76 ± 0.42 | -0.346 ± 0.27 |
| UAAAAGCAAUAUUACGAGCA | -0.549 ± 0.088 | -0.276 ± 0.1 |
| CGGUAGCAAUAUUACGCGCU | -3.13 ± 0.39 |  |

| Sequence | self-splicing fitness (ln) (30 °C) | self-splicing fitness (ln) (37 °C) |
| --- | --- | --- |
| UCUGAGCAAUAUUACGAAGA | -1.67 ± 0.21 | -0.838 ± 0.27 |
| GCCGAGCAAUAUUACGCCUG | -3.59 ± 0.23 | -2.03 ± 0.22 |
| ACAAAGCAAUAUUACGCAGC | -2.63 ± 0.17 | -0.879 ± 0.16 |
| CCGCAGCAAUAUUACGUCAU | -3.18 ± 0.15 | -2.25 ± 0.2 |
| UACGAGCAAUAUUACGUUCA | -1.3 ± 0.11 | -0.719 ± 0.13 |
| AGGUAGCAAUAUUACGUUUG | -3.578 ± 0.024 | -2.55 ± 0.039 |
| AGUAAGCAAUAUUACGACCU | 0.329 ± 0.11 | 0.451 ± 0.14 |
| AGCCAGCAAUAUUACGAGGC | -3.6 ± 0.2 | -2.02 ± 0.19 |
| GUACAGCAAUAUUACGGUCA | -0.796 ± 0.068 | -0.618 ± 0.082 |
| CAUCAGCAAUAUUACGAUUA | -0.634 ± 0.091 | -0.682 ± 0.085 |
| UCGCAGCAAUAUUACGGCGA | -3.35 ± 0.13 | -3 ± 0.17 |
| ACACAGCAAUAUUACGCAUC | -3.23 ± 0.21 | -0.58 ± 0.094 |
| GACGAGCAAUAUUACGUCUG | -3.64 ± 0.22 | -2.53 ± 0.2 |
| CGCGAGCAAUAUUACGUAGA | -3.09 ± 0.15 | -2.93 ± 0.23 |
| CCGGAGCAAUAUUACGCAUG | -1.66 ± 0.14 | 0.0371 ± 0.22 |
| CGAAAGCAAUAUUACGCCUU | -2.73 ± 0.44 | -1.11 ± 0.28 |
| UUAAAGCAAUAUUACGUCCA | -0.0955 ± 0.086 | 0.343 ± 0.11 |
| ACAAAGCAAUAUUACGAAUU | -3.38 ± 0.2 | -2.12 ± 0.18 |
| UUCUAGCAAUAUUACGUGCU | -3.37 ± 0.24 | -2.11 ± 0.24 |
| UGCUAGCAAUAUUACGGGGA | -0.989 ± 0.14 | 0.0335 ± 0.14 |
| GUUGAGCAAUAUUACGUAAA | -2.7 ± 0.2 | -1.73 ± 0.19 |
| GUUGAGCAAUAUUACGGUAU | -4.2 ± 0.23 | -1.71 ± 0.13 |
| GCCGAGCAAUAUUACGACUU | -1.04 ± 0.31 | -0.625 ± 0.34 |
| CAGUAGCAAUAUUACGCCCG | 0.504 ± 0.12 | -0.351 ± 0.15 |
| GGGAAGCAAUAUUACGUCUU | -0.577 ± 0.09 | -0.159 ± 0.13 |
